We go through four molecules from patent US20120190612A1, “METHODS OF TREATMENT” (CRC FOR ASTHMA AND AIRWAYS LTD., priority 2009, published 2012).

Some results are limits rather than exact numbers.

In test [1] the test system is HMVEC-LLy cells. Briefly: Tube formation on Matrigel. The test is classed as cell-based, human. The conditions noted are these: 24 hrs, n=2. Here is the method:
To assess formation of tubular structures, 48 well plates were coated with 130 μL Matrigel® (BD Bioscience), which was solidified at 37° C. over 45 min. 2×10^4 HMVEC-LLy cells in complete EBM-2 (500 μL) were seeded per well and allowed to attach for 30 min, before lamstatin, tumstatin, CP17 or vehicle was added to the wells. Photos were taken with a Kodak Digital Camera every 2 hrs. Tube formation peaked at 24 hrs, at which time tubular structures were further analysed to determine length (in pixels) and number of tubes per high power field (HPF) area (px^2). The HPF was divided in nine regions of equal size and tubes per region were counted. Mean and SEM were calculated and plotted.

Another test deals with T1, integrin β3 (Homo sapiens, UniProt P05106).
T1 construct: endogenous in cells; host or cells: HMVEC-LLy (human primary lymphatic endothelial cells)
T1 sequence (P05106 27-788): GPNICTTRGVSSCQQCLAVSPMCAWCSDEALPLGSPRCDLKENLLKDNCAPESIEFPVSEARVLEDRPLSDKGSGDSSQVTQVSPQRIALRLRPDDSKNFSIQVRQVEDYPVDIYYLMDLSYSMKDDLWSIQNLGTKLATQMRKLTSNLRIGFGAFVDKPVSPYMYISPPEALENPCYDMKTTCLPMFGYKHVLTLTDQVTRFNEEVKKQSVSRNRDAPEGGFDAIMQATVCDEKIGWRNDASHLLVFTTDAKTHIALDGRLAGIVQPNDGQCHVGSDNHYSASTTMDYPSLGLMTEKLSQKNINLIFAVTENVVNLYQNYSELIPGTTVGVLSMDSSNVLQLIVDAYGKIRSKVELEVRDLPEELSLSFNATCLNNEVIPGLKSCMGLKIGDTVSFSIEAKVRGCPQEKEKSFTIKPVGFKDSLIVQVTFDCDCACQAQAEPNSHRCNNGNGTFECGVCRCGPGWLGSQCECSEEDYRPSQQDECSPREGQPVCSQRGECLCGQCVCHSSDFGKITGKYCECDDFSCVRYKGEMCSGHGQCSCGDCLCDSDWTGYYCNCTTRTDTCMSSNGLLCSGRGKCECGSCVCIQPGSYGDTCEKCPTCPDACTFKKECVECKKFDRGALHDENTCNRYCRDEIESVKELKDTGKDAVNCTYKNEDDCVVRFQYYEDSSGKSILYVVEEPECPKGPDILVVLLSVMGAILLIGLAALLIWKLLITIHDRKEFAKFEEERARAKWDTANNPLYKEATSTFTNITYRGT
T1 sequence (P06756 31-889 limits assumed, further chain): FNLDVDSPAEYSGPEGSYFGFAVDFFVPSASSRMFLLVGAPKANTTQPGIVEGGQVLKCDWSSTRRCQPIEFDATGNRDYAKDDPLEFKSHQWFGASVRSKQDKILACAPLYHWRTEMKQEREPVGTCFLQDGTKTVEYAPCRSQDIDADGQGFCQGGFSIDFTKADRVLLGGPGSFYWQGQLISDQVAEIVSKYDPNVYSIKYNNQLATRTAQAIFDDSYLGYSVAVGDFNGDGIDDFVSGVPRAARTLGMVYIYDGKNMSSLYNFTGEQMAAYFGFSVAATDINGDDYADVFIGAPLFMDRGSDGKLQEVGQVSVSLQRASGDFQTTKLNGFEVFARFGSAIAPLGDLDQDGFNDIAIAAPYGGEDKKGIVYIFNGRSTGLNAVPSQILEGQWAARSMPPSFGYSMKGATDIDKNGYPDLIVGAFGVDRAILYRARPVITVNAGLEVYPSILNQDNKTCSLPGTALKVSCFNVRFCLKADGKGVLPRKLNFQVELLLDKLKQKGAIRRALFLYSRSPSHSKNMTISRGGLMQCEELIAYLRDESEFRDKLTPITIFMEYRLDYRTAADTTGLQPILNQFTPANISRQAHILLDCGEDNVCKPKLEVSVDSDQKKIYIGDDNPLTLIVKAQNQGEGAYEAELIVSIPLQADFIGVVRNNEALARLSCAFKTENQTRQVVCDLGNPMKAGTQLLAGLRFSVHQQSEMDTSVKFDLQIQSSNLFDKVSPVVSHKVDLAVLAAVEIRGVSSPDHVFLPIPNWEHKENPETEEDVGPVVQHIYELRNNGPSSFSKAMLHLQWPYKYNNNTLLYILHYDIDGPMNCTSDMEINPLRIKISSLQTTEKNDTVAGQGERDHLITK
T1 sequence (P06756 891-1048 limits assumed, further chain): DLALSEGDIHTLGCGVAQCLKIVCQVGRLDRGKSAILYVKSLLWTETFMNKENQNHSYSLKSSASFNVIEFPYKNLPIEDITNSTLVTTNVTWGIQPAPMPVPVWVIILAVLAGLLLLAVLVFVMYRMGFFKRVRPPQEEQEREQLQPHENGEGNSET
Briefly: Integrin binding of HMVEC-LLy cells on antibody-coated plates. The test is classed as cell-based. The conditions noted are these: lamstatin 10 μg/ml, CP17 5 μM, 1 h. The protocol: (§1) Antibodies for integrin α5 (MAB1956Z; MAB1953Z), integrin β1 (MAB2253Z) and integrin β3 (MAB1957Z) (all Millipore, USA) were coated to 96 well tissue culture plates (Nunc, USA) at a concentration of 10 μg/mL overnight at 4° C. in sterile coating buffer (50 mM Na2CO3, 50 mM NaHCO3, pH 9.6). Plates then were blocked with sterile 1% BSA/PBS for 1 h at 37° C. and washed twice with EBM-2 MV (Lonza, Basel, Switzerland). MMVEC-LLy cells were carefully removed from culture flasks with non-enzymatic detachment solution (Trevigen, Md., USA) and washed twice with EBM-2 (Lonza, Basel, Switzerland). Volume was adjusted to a cell concentration of 50,000 cells/100 μL and divided into aliquots for treatment with recombinant lamstatin (10 μg/ml), CP17 (5 μM) or vehicle (1 nM EDTA, pH 3.5) only. Cells were then transferred to the antibody-coated plates and incubated for 1 h at 37° C. Wells were then washed with HANKS twice to remove unbound cells and fixed with 4% paraformaldehyde (in PBS) for 15 min at room temperature. Wells thereafter were photographed with an Olypmus CAMEDIA C-4000 camera mounted to an Olympus CK2 microscope. Pictures were divided into 25 segments and cells of 5 center-near quadrants were counted and averaged. […] Using a similar approach, the inventors observed no expression of integrin α4 on the surface of HMVEC-LLy cells (data not shown).

A further test concerns the target T2, integrin α5 (Homo sapiens, UniProt P05556+P08648).
T2 construct: endogenous in cells; host or cells: HMVEC-LLy (human primary lymphatic endothelial cells)
Described as above. The conditions noted are these: lamstatin 10 μg/ml, CP17 5 μM, 1 h. The test is classed as cell-based. Here is the method:
as §1

The target in a further test is T3, integrin β1 (Homo sapiens, UniProt P05556+P08648).
T3 construct: endogenous in cells; host or cells: HMVEC-LLy (human primary lymphatic endothelial cells)
T3 sequence (P05556 21-798): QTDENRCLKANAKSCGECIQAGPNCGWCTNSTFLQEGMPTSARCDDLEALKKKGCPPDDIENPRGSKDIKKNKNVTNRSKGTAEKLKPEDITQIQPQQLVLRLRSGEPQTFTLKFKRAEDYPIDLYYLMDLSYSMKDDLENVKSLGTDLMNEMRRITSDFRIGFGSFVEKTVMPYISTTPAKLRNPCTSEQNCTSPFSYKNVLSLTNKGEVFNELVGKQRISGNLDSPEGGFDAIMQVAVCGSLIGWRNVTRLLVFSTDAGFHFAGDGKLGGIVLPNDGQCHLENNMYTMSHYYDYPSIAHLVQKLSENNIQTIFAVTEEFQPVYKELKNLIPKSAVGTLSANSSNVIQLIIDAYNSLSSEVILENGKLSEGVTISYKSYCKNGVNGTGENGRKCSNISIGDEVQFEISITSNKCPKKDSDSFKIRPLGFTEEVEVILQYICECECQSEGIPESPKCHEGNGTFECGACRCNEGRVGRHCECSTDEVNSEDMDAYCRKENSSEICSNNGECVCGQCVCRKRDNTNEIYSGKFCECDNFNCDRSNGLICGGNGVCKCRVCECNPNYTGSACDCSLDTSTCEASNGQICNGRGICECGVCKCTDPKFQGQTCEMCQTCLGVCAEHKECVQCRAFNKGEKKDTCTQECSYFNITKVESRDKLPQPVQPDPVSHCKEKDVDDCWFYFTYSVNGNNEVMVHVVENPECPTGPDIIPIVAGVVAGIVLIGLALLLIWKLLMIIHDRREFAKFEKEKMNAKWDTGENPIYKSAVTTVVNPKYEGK
T3 sequence (P08648 42-894 limits assumed): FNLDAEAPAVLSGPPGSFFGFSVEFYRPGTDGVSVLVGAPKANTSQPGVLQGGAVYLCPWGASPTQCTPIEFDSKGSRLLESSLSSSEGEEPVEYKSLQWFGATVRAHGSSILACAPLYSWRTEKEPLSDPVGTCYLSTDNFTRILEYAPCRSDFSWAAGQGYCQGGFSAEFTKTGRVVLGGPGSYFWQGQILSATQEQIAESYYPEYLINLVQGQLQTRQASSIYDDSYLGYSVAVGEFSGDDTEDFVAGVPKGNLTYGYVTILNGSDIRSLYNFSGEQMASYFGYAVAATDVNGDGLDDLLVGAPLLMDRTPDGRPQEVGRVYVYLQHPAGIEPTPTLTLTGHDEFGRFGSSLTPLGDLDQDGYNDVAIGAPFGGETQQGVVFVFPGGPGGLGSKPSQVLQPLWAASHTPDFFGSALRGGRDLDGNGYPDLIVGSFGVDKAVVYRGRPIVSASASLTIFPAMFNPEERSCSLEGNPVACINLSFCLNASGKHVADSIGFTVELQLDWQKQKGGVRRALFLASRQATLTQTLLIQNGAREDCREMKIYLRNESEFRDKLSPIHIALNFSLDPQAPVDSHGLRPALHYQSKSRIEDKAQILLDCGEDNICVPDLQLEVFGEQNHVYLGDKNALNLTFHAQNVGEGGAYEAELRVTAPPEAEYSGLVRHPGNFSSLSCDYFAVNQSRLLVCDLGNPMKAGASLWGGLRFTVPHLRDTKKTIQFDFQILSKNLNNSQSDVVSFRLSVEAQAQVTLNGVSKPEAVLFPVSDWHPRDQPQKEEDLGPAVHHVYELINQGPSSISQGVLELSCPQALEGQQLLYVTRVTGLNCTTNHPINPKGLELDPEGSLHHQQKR
T3 sequence (P08648 895-1049 limits assumed): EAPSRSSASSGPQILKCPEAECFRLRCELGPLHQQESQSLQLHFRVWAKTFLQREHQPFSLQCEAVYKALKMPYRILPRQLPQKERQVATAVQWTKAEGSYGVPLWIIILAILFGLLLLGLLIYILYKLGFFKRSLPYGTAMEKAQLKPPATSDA
The description is as above. Type of test: cell-based. The conditions noted are these: lamstatin 10 μg/ml, CP17 5 μM, 1 h. Here is the method:
as §1

In test [2] the test system is lung adenocarcinoma cells (LNM35 AAV-GFP). Description: Mouse ear tumour plug model of tumour-induced lymphangiogenesis. Type of test: in vivo. The conditions noted are these: lamstatin 10 or 100 μg/mL; CP17 5 or 50 μA; vs vehicle. The protocol:
A mouse ear tumour plug model was utilized in which green fluorescent protein (GFP)-tagged lung adenocarcinoma cells (LNM35 AAV-GFP) were injected between the two layers of skin of the ears of NOD/SCID mice. 1×10^6 tumour cells were embedded in […] growth factor free Matrigel® medium enriched with vehicle (1 nM EDTA, pH3.0) or lamstatin at either 10 μg/mL or 100 μg/mL. Mice were divided into three groups.
Group 1 (n=9): One ear of each mouse injected with tumour cells+10 μg/mL lamstatin; the other ear injected with tumour cells+vehicle control. Group 2 (n=9): One ear of each mouse injected with tumour cells+100 μg/mL lamstatin; the other ear injected with tumour cells+vehicle control. Group 3 (n=3): Each ear injected with Matrigel® only.
Injections were single shots such that at least 25 μL was injected. 12 days after injection were sacrificed by anesthetisation and cervical dislocation. Ears were removed for whole mount staining. Flaps of skin from each ear were carefully separated, fixed and stained for either the lymphatic endothelial cell specific marker LyVe-1 (rabbit polyclonal anti-LyVe-1 antibody detected using anti-rabbit Alexafluor 647) or the vascular endothelial cell specific marker PECAM (CD31 rat anti-mouse antibody clone MEC13.3 (Pharmingen), detected with […]). Tumour cells were visualised by detection of GFP expression. Images of representative regions of ears were obtained using a confocal microscope and LyVe-1 or PECAM staining was quantified.
Using the LyVe-1 whole mount stained mouse ear sections, the inventors further investigated the morphology of lymphatic vessel formation. Specifically confocal images were loaded into Image J software (www.sbweb.nih.gov/ij/), a 5×5 grid overlayed and vessels examined for branching and looping. The functionality of a lymphatic network is based on its maturity and in general it is accepted that a tumour induces a rather immature network formation. Reconnecting vessels (measured as loops) and increased branching (measured as branches) are signs of immature vessels induced by, for example, a tumour (see for example Shayan et al. Growth Factors 25, 417-425, 2007).
Branches were defined as two clearly distinguishable vessels that separate out without rejoining. Loops were defined as small, circular vessel structures in the same focal plane. Branches or loops were counted separately per image and mean values were calculated for each treatment group.

Another test concerns the target T4, integrins α5 and β1 (Homo sapiens, UniProt P05556+P08648).
T4 construct: endogenous in cells; host or cells: HMVEC-LLy (human primary lymphatic endothelial cells)
Briefly: Integrins mediating binding of lymphatic endothelial cells (data not shown). The test is classed as cell-based. The conditions noted are these: HMVEC-LLy in vitro, different from HUVECs.

In test [3] the test system is HMVEC-LLy cells. Description: Migration towards a VEGF-D gradient (FluoroBlok transwell). Type of test: cell-based, human. The conditions noted are these: 24 hrs. Here is the method:
FluoroBlok BioCoat 24-well inserts (BD Bioscience) were seeded with 4×10^4 HMVEC-LLy cells in 750 μL DMEM with 0.1% BSA, 1% antibiotics and 25 mM HEPES and incubated for 1 hr. The bottom well was filled with 500 μL medium (as described above) with or without 10 ng/mL VEGF-D (R&D Systems) as well as various concentrations of lamstatin, tumstatin, CP17 or vehicle. Additionally, top wells were loaded with inhibitors to match the bottom well concentration. According to manufacturer's instructions cells were allowed to migrate for 24 hrs before bottom media was removed. Thereafter the underside of the transwell with the migrated cells was washed twice with HANKS buffer and placed in a 4 μg/mL calcein (HANKS) solution for 90 min at 37° C. Signal was read with a bottom read fluorescence microplate reader at 485/515 nm (excitation/emission).

For a further test, the target named is VEGF-D (R&D Systems) (UniProt O43915). Description: cell-based or functional assay.
The subject of a further test is LAM nodule cells. Briefly: MTT cell viability assay, LAM nodule cells. The conditions noted are these: intermediate layer, centre and outer nodule cells, 72 hrs. The test is classed as cell-based. The protocol: (§2) To determine the function of lamstatin, human primary lymphatic endothelial cells (HMVEC-LLy cells) were exposed to various concentrations of lamstatin and an MTT assay was performed. As a comparison, commercially available tumstatin was used. Specifically, to assess cell viability 4×10^3 HMVEC-LLy cells were seeded per well in 100 μl complete EBM-2 media (with bullet kit, Lonza) and incubated for 2 hrs at 37° C., 5% CO2. After this period lamstatin, tumstatin and respective vehicles (1 nM EDTA, pH 3.0) were prepared in complete EBM-2 as serial dilutions in a separate plate and added. Cells were grown for 24 hrs before MTT (1 mg/mL in PBS) was added. After 6 h of further incubation cells were lysed overnight with 10% SDS/0.01 M HCl and measured the following day in a plate reader at 570 nm.
The inventors isolated lung cells from a LAM patient, which cells originated from the LAM nodules. These cells were termed according to their location within the nodule, as intermediate layer in the nodule, centre cells and outer nodule cells. These cells were then treated with lamstatin or tumstatin and cell viability measured after 72 hrs. The MTT viability assay was performed as described above in Example 1.
On the technique in general: Tetrazolium assays rely on reduction of a dye to a coloured formazan, in cell work by metabolically active cells.

Test [4] has as its system human primary lymphatic endothelial cells (HMVEC-LLy cells). Briefly: MTT cell viability assay, lymphatic endothelial cells. Type of test: cell-based. The conditions noted are these: 24 hrs, data not shown. Here is the method: as §2, with “Cells were grown for 24 hrs before MTT (1 mg/mL in PBS) was added.” left out
The MTT assay was performed as described above.

T2 sequence (P08648 42-894 limits assumed): as the sequence (P08648 42-894 limits assumed) above
T2 sequence (P08648 895-1049 limits assumed): as the sequence (P08648 895-1049 limits assumed) above
T2 sequence (P05556 21-798): as the sequence (P05556 21-798) above

Regarding “VCNFASRNDYSYWLSTP (listed as Homo sapiens) [CP17]”, the “numbers of tube-like structures formed” value in the test on HMVEC-LLy cells [1] is “reduce in a concentration related manner”. For the same molecule, in the test with integrin β3, the “cell binding in presence of monoclonal antibody against integrin β3” value is given as “no effect on binding”. The “cell binding in presence of monoclonal antibody against integrin α5” value with integrin α5 is given as “significantly inhibited cell binding”. The “cell binding in presence of monoclonal antibody against integrin β1” value in the test with integrin β1 is “significantly inhibited cell binding”. In addition, in [2], the “number of branches of lymphatic vessels” value is “significantly reduced” and the “number of loops of lymphatic vessels” value is “significantly reduced”. For the same molecule, the “predominant integrins that mediate the binding of lymphatic endothelial cells” value in the test with integrins α5 and β1 was “integrins α5 and β1”. For the same molecule, the “migration towards a VEGFD gradient” value in the test on HMVEC-LLy cells [3] (n=1, VEGFD alone 42.000 RFU) was “the same effect was not observed”.
“VEGFD specific blocking fusion receptor (R3-FC) (Fc fusion)” returned a migration of HMVEC-LLy towards a VEGFD gradient after 24 hrs (RFU) with VEGF-D (R&D Systems) below 15000 RFU.

B1: VEGFD: growth factor (R&D Systems) used as chemoattractant gradient for lymphatic endothelial cells (protein)
chain: FYDIETLKVIDEEWQRTQCSPRETCVEVASELGKSTNTFFKPPCVNVFRCGGCCNEESLICMNTSTSYISKQLFEISVPLTSVPELVPVKVANHTGCKCLPTAPRHPYS
As to B1, the “migration of lymphatic endothelial cells towards VEGFD” value with HMVEC-LLy cells [3] (increasing concentrations of VEGFD) is “attract lymphatic endothelial cells in a concentration related manner”.

B2: tumstatin: NC1 domain of the α3 chain of collagen type IV; human sequence SEQ ID NO:3; commercially available tumstatin was used (protein, listed as Homo sapiens)
chain: GFVFTRHSQTTAIPSCPEGTVPLYSGFSFLFVQGNQRAHGQDLGTLGSCLQRFTTMPFLFCNVNDVCNFASRNDYSYWLSTPALMPMNMAPITGRALEPYISRCTVCEGPAIAIAVHSQTTDIPPCPHGWISLWKGFSFIMFTSAGSEGTGQALASPGSCLEEFRASPFLECHGRGTCNYYSNSYSFWLASLNPERMFRKPIPSTVKAGELEKIISRCQVCMKKRH
B2: the “numbers of tube-like structures formed” value with HMVEC-LLy cells [1] is given as “reduce in a concentration related manner”. Moreover, the “reduction of cell viability (MTT)” value with LAM nodule cells is listed as “effective in reducing cell viability at higher concentrations”. The “predominant integrins that mediate the binding of lymphatic endothelial cells” value in the test with integrins α5 and β1 was “integrins α5 and β1”. Moreover, in [4], the “cell viability (MTT)” value is on record as “lamstatin only”.
